This note sets out measurements from article PMC7962591 (Cell, 2021).

This assay deals with SARS-CoV-2 (strain Wuhan-Hu-1) spike protein, wild type, full-length expression construct (SARS-CoV-2, Wuhan-Hu-1, UniProt P0DTC2). Put plainly: flow cytometry on cells.

B1: COV2-2676 (human mAb, recombinant IgG1) (antibody, V domains shown)
VH: QVQLVQSGAEVKKPGSSVKVSCKASGGTFSSYAINWVRQAPGQGLEWMGGIIPIFGTANYAQKFQGRVTFTADESTSTAYMEVSSLRSEDTAVYYCARSCGDCYSADLDFWGQGTLVTVSS
VL: EIVLTQSPATLSLSPGERATLSCRASQSISSFLAWYQQKPGQAPRLLIYDASNRATGIPARFSGSGSGTDFTLTISSLEPEDFAVYYCQRRSNWPPFTFGPGTKVDIK
For the molecule B1, the binding result was “binds”.

B2: COV2-2489 (human mAb, recombinant IgG1) (antibody, V domains shown)
VH: QLQLQESGPGLVKPSETLSLTCTVSGGSISSTTYYWGWIRQPPGKGLEWIASIYYSGSTYYNPSLKSRLTVSVDTSKNQFSLKLSSVTAADTAVYYCARQWKWFGEAWYFDLWGRGTLVTVSS
VL: not shown
Take B2: the binding result is reported as “binds”.
